US20060222644A1 (Biogen, published 2006)
Positions count from the first letter of the chain named.

B1: chimeric BHA10 (chBHA10) (antibody, human IgG1, V domains shown)
VH: QVQLQQSGPELVKPGASVRISCKASGYTFTTYYLHWVKQRPGQGLEWIGWIYPGNVHAQYNEKFKGKATLTADKSSSTAYMQLSSLTSEDSAIYFCARSWEGFPYWGQGTTVTVSS
VL: DIVMTQSQKFMSTSVGDRVSVTCKASQNVGINVAWYQQKPGQSPKSLISSASYRYSGVPDRFTGSGSGTDFTLTITNVQSEDLAEYFCQQYDTYPFTFGSGTKLEIK
notes: expressed in 293-EBNA cells; also called chBHA 0
B2: Version 4 huBHA10 (antibody, human IgG1, kappa, V domains shown)
VH: QVQLVQSGAEVKKPGSSVKVSCKASGYTFTTYYLHWVRQAPGQGLEWMGWIYPGNVHAQYNEKFKGRVTITADKSTSTAYMELSSLRSEDTAVYYCARSWEGFPYWGQGTTVTVSS
VL: DIQMTQSPSSLSASVGDRVTITCKASQNVGINVAWYQQKPGKAPKSLISSASYRYSGVPSRFSGSGSGTDFTLTISSLQPEDFATYFCQQYDTYPFTFGQGTKVEIKR
notes: Heavy chain #3 and Light chain #2; human IgG1/kappa; the 293-EBNA material from pKJS046 may still carry it; also called huBHA10 Version 4; humanized BHA10 antibody version 4
B3: Version 3 huBHA10 (antibody, human IgG1, V domains shown)
VH: B2 VH
VL: DIQMTQSPSSLSASVGDRVTITCKASQNVGINVAWFQQKPGKAPKSLISSASYRYSGVPSRFSGSGSGTDFTLTISSLQPEDFATYYCQQYDTYPFTFGQGTKVEIK
notes: the 293-EBNA material may still carry it; also called huBHA10 Version 3
B4: Version 2 huBHA10 (antibody, human IgG1, V domains shown)
VH: B2 VH with M48I, V68A
VL: B2 VL
notes: also called huBHA10 Version 2

What was measured:
[1] = biological target: T1, lymphotoxin beta receptor (LT-β-R) (human, UniProt P36941 31-435); test: FACS staining of HT-29 cells with purified antibody; reference huCBE11
T1 construct: whole, on cells; also called LT-β receptor
T1 sequence (P36941 31-435): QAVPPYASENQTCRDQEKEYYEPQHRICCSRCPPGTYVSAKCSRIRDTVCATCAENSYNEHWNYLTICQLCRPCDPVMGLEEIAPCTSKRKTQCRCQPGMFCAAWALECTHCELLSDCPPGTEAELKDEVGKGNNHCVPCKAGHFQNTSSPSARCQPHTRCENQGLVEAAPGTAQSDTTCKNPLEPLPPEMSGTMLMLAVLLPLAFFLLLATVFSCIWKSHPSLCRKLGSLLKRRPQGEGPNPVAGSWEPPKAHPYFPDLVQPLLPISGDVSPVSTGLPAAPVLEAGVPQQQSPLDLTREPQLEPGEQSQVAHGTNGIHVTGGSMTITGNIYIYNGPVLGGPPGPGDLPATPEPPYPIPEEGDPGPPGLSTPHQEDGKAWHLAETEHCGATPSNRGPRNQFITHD

[2] = biological target: T1, lymphotoxin beta receptor (LT-β-R); test: FACS of Protein A-purified antibodies on HT29 cells
Protocol: Co-transfections of 293-EBNA cells with chBHA10 and huBHA10 Versions 1-4 were scaled up and conditioned medium was harvested. Antibody was purified on Protein A-Sepharose and purified mAbs were assayed for activity. Binding to the lymphotoxin-beta receptor was determined by FACS analysis of protein A-purified antibodies on the cell-line HT29.
HT29 cells were harvested by treatment with PBS containing 5 mM EDTA for 30 minutes followed by vigorous agitation. Cells were distributed to round-bottom 96-well plates at 2.5×10⁵ cells/well. Supernatants from 293-E cells transfected with BHA10 variants were added to the wells at the indicated dilutions in a total volume of 100 μl and incubated at 4° C. for 1 hour. The cells were washed twice with FACS buffer (PBS containing 5% FBS) and incubated with a 1:100 dilution of PE-conjugated anti-human heavy and light chain antibody (Jackson ImmunoResearch Laboratories) for 1 hour. The cells were then washed 3 times with FACS buffer and resuspended in 100 μl of PBS containing 1.0% paraformaldehyde. Samples were then transferred to the FACS facility for analysis. Protein A-purified antibodies from 293-E cells transfected with BHA10 variants were assayed at the indicated concentrations as shown in FIG. 2. The Protein A-purified CBE11 and 5C8 (anti-CD40L antibody) research standards were used as positive and negative controls, respectively. Rank ordering of binding activity was chBHA10=Version 4 huBHA10=Version 2 huBHA10>Version 3 huBHA10.

Binder | apparent Kd, fold relative to huCBE11 [1] | binding result [2]
B1 | ~2 fold | –
B2 | – | binds
B3 | – | binds
B4 | – | binds
